3 molecules from paper PMC4728127, “A mutation uncouples the tubulin conformational and GTPase cycles, revealing allosteric control of microtubule dynamics” (eLife, 2015) can be followed below.

Assay [1] concerns the target β:T238A αβ-tubulin (S. cerevisiae, UniProt P09733 1-447; P02557 1-457, T238A). In words: AUC.
The target of assay [2] is T1, wild-type yeast αβ-tubulin (S. cerevisiae, UniProt P09733 1-447; P02557 1-457).
T1 chain 1: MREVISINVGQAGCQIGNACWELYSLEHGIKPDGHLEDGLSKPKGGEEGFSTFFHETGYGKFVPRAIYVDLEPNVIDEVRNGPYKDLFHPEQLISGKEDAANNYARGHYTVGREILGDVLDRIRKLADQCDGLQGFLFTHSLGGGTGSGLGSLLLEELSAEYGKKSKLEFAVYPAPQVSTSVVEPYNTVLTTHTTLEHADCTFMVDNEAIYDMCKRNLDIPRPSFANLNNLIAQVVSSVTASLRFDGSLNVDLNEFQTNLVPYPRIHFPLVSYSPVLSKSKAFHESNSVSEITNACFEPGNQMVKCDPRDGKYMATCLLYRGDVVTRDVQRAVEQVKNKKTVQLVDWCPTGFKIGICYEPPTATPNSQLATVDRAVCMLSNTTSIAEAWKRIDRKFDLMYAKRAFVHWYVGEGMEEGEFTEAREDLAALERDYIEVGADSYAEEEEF
T1 chain 2: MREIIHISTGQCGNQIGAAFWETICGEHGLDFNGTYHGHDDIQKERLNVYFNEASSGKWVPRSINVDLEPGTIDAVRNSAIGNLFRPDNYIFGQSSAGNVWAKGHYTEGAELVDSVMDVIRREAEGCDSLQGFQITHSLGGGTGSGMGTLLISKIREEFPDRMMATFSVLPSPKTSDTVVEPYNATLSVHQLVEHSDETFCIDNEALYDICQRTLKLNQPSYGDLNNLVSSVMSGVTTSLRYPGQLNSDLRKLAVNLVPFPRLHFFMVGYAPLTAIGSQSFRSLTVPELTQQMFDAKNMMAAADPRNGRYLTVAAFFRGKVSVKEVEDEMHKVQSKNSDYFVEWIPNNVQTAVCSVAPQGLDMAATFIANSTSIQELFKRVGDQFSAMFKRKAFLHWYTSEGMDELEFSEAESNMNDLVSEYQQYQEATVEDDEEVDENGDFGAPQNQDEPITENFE
As to the kind of experiment: AUC.

For assay [3], the target named is T2, wild-type yeast αβ-tubulin (S. cerevisiae, UniProt P09733 1-447; P02557 1-457).
T2 construct: Tub1p, α-tubulin of S. cerevisiae; Ayaz et al., 2012; 2014); Tub2p, β-tubulin of S. cerevisiae; Unpolymerized heterodimer in the AUC; polymerised into microtubules in the Bim1-GFP, growth and sedimentation assays; also called WT; wild-type αβ-tubulin
In words: AUC; sedimentation velocity, 50,000 rpm, 20 °C, absorbance at 229 nm; 0.15 µM T238A αβ-tubulin with 0.015-5 µM TOG1 or TOG2; RB100 (25 mM Tris pH 7.5, 1 mM MgCl2, 1 mM EGTA, 100 mM NaCl) with 20 µM GTP; analysed with SEDFIT and SEDPHAT. Conditions: both partners purified.

For assay [4], the target named is T3, β:T238A αβ-tubulin (S. cerevisiae, UniProt P09733 1-447; P02557 1-457, T238A).
T3 construct: Tub1p, α-tubulin of S. cerevisiae; Tub2p, β-tubulin of S. cerevisiae, with T238A made by QuikChange on the wild-type Tub2 expression plasmid; Unpolymerized heterodimer in the AUC; microtubules in the other assays; also called T238A tubulin; β:T238A microtubules
The description is as above. The following applies: both partners purified.

Assay [5] concerns the target T2, wild-type yeast αβ-tubulin. As to the kind of experiment: TIRF microscopy of Bim1-GFP on microtubules; dynamic microtubules grown from sea urchin axonemes in flow chambers with 1 mM GTP; 5 or 50 nM Bim1-GFP in solution; 30 °C. Conditions: both partners purified.
In assay [6] the target is T3, β:T238A αβ-tubulin. The description is as above. Conditions: both partners purified.
A further assay deals with T4, β:C354A αβ-tubulin (S. cerevisiae, UniProt P09733 1-447; P02557 1-457, C354A).
T4 construct: Tub1p, α-tubulin of S. cerevisiae; Tub2p, β-tubulin of S. cerevisiae, with C354A (yeast numbering); The making of the C354A plasmid is not described; Used as microtubules; also called β:C354A microtubules
The description is as above. The following applies: both partners purified.

B1: TOG2(318-560) of Stu2p (domain or fragment, yeast, UniProt P46675 318-560, looked up)
chain: MLPEETILDKLPKDFQERITSSKWKDRVEALEEFWDSVLSQTKKLKSTSQNYSNLLGIYGHIIQKDANIQAVALAAQSVELICDKLKTPGFSKDYVSLVFTPLLDRTKEKKPSVIEAIRKALLTICKYYDPLASSGRNEDMLKDILEHMKHKTPQIRMECTQLFNASMKEEKDGYSTLQRYLKDEVVPIVIQIVNDTQPAIRTIGFESFAILIKIFGMNTFVKTLEHLDNLKRKKIEETVKTL
notes: Stu2p, yeast microtubule polymerase, TOG2 domain, residues 318-560; Plasmid described in Ayaz et al., 2012; 2014; also called Stu2 TOG2 domain
B1: the Kd was 160 nM with β:T238A αβ-tubulin [1] and 180 nM in assay [2]. Also, the binding result (in assay [3]; in the assay with β:T238A αβ-tubulin [4]) was “binds” throughout.

B2: Bim1-GFP fusion protein (natural protein, yeast, UniProt P40013 1-344, looked up)
chain: MSAGIGESRTELLTWLNGLLNLNYKKIEECGTGAAYCQIMDSIYGDLPMNRVKFNATAEYEFQTNYKILQSCFSRHGIEKTVYVDKLIRCKFQDNLEFLQWLKKHWIRHKDESVYDPDARRKYRPIITNNSATKPRTVSNPTTAKRSSSTGTGSAMSGGLATRHSSLGINGSRKTSVTQGQLVAIQAELTKSQETIGSLNEEIEQYKGTVSTLEIEREFYFNKLRDIEILVHTTQDLINEGVYKFNDETITGHGNGNGGALLRFVKKVESILYATAEGFEMNDGEDELNDKNLGEHGTVPNQGGYANSNGEVNGNEGSNHDVIMQNDEGEVGVSNNLIIDEETF
notes: Bim1p, the yeast EB1 family protein; C-terminal EGFP-tag followed by a Strep-tag II; also called Bim1p; yeast EB1 protein; source: E. coli BL21(DE3), purified (His60 Superflow column, Strep-Tactin Superflow column); not shown: EGFP, C-terminal, kept
As for B2, the binding result (in assay [5]; in the assay with β:T238A αβ-tubulin [6]; in the assay with β:C354A αβ-tubulin) was “binds” each time.

B3: TOG1(1-317) of Stu2p (domain or fragment, yeast, UniProt P46675 1-317, looked up)
chain: MSGEEEVDYTTLPLEERLTYKLWKARLEAYKELNQLFRNSVGDISRDDNIQIYWRDPTLFAQYITDSNVVAQEQAIVALNSLIDAFASSSLKNAHNITLISTWTPLLVEKGLTSSRATTKTQSMSCILSLCGLDTSITQSVELVIPFFEKKLPKLIAAAANCVYELMAAFGLTNVNVQTFLPELLKHVPQLAGHGDRNVRSQTMNLIVEIYKVTGNNSDLLEEILFKKLKPIQVKDLHKLFAKVGDEPSSSKMLFEWEKRELEKKRSQEEEARKRKSILSNDEGEYQIDKDGDTLMGMETDMPPSKQQSGVQIDTFS
notes: Stu2p, yeast microtubule polymerase, TOG1 domain, residues 1-317; Plasmid described in Ayaz et al., 2012; 2014; also called Stu2 TOG1 domain
Take B3: the figures for the Kd (with β:T238A αβ-tubulin [1]; in assay [2]) were 50 nM and 90 nM, respectively. Further, the binding result (in assay [3]; in the assay with β:T238A αβ-tubulin [4]) was “binds” each time.

As usually defined, the Kd is a measure of binding affinity in units of concentration. A higher Kd goes with weaker binding.
